Data reported in patent US8361965B2, “Recombinant chimeric protein of neutrophil inhibitory factor and hirugen, and pharmaceutical composition thereof” (Lunan Pharmaceutical Group Corporation, priority 2008, dated 2013).

Columns and labels:
leukocyte adhesion = assay: anti-leukocyte adhesion activity, in vitro comparative analysis; type: cell-based
Human fibrin = target: T1, Human fibrin (Homo sapiens, UniProt P02671+P02675+P02679); assay: in vitro binding of TNHH to fibrin (SEC-HPLC); details: 37° C. 1 h
T1 construct: Human fibrin (1 g/ampoule, F5386), Sigma company; purchased Sigma F5386
T1 sequence (P02671 36-629 limits assumed): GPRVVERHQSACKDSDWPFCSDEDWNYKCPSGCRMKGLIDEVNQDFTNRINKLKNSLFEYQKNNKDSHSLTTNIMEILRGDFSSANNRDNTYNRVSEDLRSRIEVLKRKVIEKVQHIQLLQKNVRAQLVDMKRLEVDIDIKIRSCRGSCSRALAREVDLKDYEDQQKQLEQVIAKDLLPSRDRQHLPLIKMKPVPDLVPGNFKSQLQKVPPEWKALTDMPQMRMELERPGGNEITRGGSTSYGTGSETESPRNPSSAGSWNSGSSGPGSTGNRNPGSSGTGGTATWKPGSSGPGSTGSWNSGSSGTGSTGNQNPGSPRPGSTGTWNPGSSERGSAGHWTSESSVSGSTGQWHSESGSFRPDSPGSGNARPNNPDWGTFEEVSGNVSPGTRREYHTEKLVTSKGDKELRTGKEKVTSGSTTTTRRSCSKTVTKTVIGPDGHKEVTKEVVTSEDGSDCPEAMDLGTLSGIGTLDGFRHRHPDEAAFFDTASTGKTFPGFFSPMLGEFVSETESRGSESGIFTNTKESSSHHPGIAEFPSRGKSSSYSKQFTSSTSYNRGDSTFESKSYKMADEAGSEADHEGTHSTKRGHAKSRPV
T1 sequence (P02675 45-491 limits assumed): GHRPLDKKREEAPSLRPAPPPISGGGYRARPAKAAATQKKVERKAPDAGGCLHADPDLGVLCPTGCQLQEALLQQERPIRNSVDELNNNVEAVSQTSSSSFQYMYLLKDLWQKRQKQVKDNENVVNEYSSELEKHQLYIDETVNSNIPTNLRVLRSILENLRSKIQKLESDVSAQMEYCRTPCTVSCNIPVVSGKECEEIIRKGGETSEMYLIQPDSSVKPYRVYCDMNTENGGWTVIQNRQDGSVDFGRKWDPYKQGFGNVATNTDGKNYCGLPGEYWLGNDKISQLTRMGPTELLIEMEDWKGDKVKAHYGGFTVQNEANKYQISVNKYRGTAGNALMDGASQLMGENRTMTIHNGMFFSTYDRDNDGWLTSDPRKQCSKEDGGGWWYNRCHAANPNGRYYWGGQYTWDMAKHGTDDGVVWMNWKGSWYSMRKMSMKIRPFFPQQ
T1 sequence (P02679 27-437 isoform P02679-2 limits assumed): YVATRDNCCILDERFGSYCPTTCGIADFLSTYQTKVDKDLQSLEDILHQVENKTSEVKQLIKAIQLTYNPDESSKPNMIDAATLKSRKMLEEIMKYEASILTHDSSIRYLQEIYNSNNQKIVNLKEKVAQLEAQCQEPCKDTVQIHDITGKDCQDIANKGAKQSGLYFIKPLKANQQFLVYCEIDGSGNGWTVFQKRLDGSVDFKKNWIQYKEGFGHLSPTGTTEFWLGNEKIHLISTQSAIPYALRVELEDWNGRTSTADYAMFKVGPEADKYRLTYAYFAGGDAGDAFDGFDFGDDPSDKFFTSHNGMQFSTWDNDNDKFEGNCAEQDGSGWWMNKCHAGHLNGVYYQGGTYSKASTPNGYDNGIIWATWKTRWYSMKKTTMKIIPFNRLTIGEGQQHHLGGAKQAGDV
Method: Weigh TNHH, dilute to 1.0 mg/ml with phosphate buffer solution, and is ready for use; Weight fibrin precisely, dissolve and dilute to 0.1 mg/ml with phosphate buffer solution, and is ready for use; Weigh thrombin, dissolve and dilute to 100 units/ml with phosphate buffer solution, which is ready for use.
Following the below procedures, test materials were reacted at 37° C. for 1 h, and then analyzed under the following chromatographic conditions.
(1) pipette test material solutions (20 μl for each), loading for analysis, and recording each retention time.
(2) pipette fibrin and thrombin solutions (0.5 ml for each), mixing and reacting at 37° C. for 1 h, and loading 20 μl sample for analysis.
(3) pipette TNHH and fibrin solutions (0.5 ml for each), mixing and reacting at 37° C. for 1 h, and loading 20 μl sample for analysis.
(4) pipette TNHH and thrombin solutions (0.5 ml for each), mixing and reacting at 37° C. for 1 h, and loading 20 μl sample for analysis.
(5) pipette TNHH and mixture of fibrin and thrombin solutions (0.5 ml for each), mixing and reacting at 37° C. for 1 h, and loading 20 μl sample for analysis.
Flow rate 0.5 ml/min; detection wavelength: 214 nm, Column temperature: room temperature; chromatogram recording time: 25 min.

rabbit whole blood = assay: in vitro whole blood anticoagulation assay; parameters: species or system white rabbit; details: for Test results (blood coagulation): room temperature 15 min
Method: TNHH was diluted to 4 mg/ml, 2 mg/ml, 1 mg/ml, 0.5 mg/ml respectively with phosphate buffer solution (10 mmol/L PB, 0.15 mol/L NaCl, pH7.4). Heparin sodium was prepared to 1 mg/ml with the same buffer solution.
Venous blood was taken from marginal ear vein of the rabbit, and rapidly added into 0#-5# tubes. 0.2 ml of the diluted TNHH samples with different concentrations was added into the 1#-4# tubes, respectively. 0.2 ml phosphate buffer solution was added into the 0# tube, which was used as a negative control. 0.2 ml heparin sodium (1 mg/ml) was added into the 5# tube, which was used as a positive control. The reagents were mixed rapidly and stored at room temperature for 15 min for observing the results.

thrombin = thrombin (Homo sapiens, UniProt P00734); assay: in vitro test for reversible reaction of TNHH and thrombin (Hirudin ELISA); type: biochemical; parameters: Human thrombin (127 Unit/ampoule), Lot No.: 20021105; purchased National Institute for The Control of Pharmaceutical and Biological Products Lot No.: 20021105
Method: Adding 1.27 ml water into one ampoule of human thrombin, and mixing to obtain 100 Unit/ml solution; diluting the mother liquid of TNHH with water to 1.0 mg/ml, taking 0.5 ml thus obtained solution and adding 0.1 ml thrombin solution ([…] of thrombin), reacting at 37 for 2 hr, centrifuging and collecting the supernatant, diluting for 10 times with the dilution solution (taught by the instruction of IMUBIND® Hirudin ELISA Kit), repeating the dilution for 6 times at a four fold gradient, detecting according to the instruction of IMUBIND® Hirudin ELISA Kit, and determining the absorbance at 450 nm wavelength.

B1: TNHH: recombinant chimeric protein of neutrophil inhibitory factor and hirugen, Met-NIF-GGGGG-FPRPGSGG-Hirugen (SEQ ID NO: 3), expressed in E. coli (protein)
chain: MNEHNLRCPQNGTEMPGFNDSIRLQFLAMHNGYRSKLALGHISITEESESDDDDDFGFLPDFAPRASKMRYLEYDCEAEKSAYMSARNCSDSSSPPEGYDENKYIFENSNNISEAALKAMISWAKEAFNLNKTKEGEGVLYRSNHDISNFANLAWDAREKFGCAVVNCPLGEIDDETNHDGETYATTIHVVCHYPKINKTEGQPIYKVGTPCDDCSEYTKKADNTTSADPVCIPDDGVCFIGSKADYDSKEFYRFRELGGGGGFPRPGSGGNGDFEEIPEEYL
modifications: N-terminal Met
- titer against leukocyte adhesion (leukocyte adhesion; TNHH 1.0 mg/ml): 720 unit/ml
- anti-leukocyte adhesion activity (leukocyte adhesion; in vitro): 750 Unit/mg
- binding with fibrin (Human fibrin): could bind with fibrin and thrombin
- Test results (blood coagulation) (rabbit whole blood; 0.2 ml TNHH 0.5 mg/ml + 1.0 ml rabbit blood): coagulated
- Test results (blood coagulation) (rabbit whole blood; 0.2 ml TNHH 1 mg/ml + 1.0 ml rabbit blood): coag-
- Test results (blood coagulation) (rabbit whole blood; 0.2 ml TNHH 2 mg/ml + 1.0 ml rabbit blood): coag-
- Test results (blood coagulation) (rabbit whole blood; 0.2 ml TNHH 4 mg/ml + 1.0 ml rabbit blood): coag-
- whole blood anticoagulation effects in vitro (rabbit whole blood; TNHH 0.5-4 mg/ml): no whole blood anticoagulation effects
- blood coagulation (rabbit whole blood; different concentrations of TNHH (0.5-4 mg/ml)): coagulated
- in vitro interaction with thrombin (reversibility) (thrombin; 37, 2 hr, Hirudin ELISA of supernatant): irreversible
- hydrolysis by thrombin (thrombin; structure FPRP-GSGG-hirugen within TNHH): could not be hydrolyzed by thrombin
